According to a protein production outcome set (Wang et al. 2014):

Experiment: label from the status in PepcDB records
In the case of “MKRKLIYLFIALAATILPAHAQKFLNDALTLSNVSLWQQGNSLYVGMTVDMANLTIGSARSLSLIPLLTDGQHNVPLQEIIVNGKRREKAYLRGLAISKQESTAIIVPYNKRETFNYTQVIPYQPWMANASLQLVENLCGCGNYQEMNAQELITNDVSTEAKRLSAMSPIVAYIQPTVEVVKNRSEQYEAHLDFPVNKSVILTDFMNNHSELVNIHSMFDKIQNDKNLTVQSISIEGFASPEGPLAFNEQLSKKRAEALKDYLVKNEKASAKLYKVTFGGENWDGLVKALESSSMKDKETFLNIIKNTTNDVKRKQEIMKVGGGAPYRTMLKEIYPGLRKVNCKIDYTVVNFDVEQGRIIIRENPKYLSLNEMYQVANSYPKGSKDFVDVFDIAVRMYPTDAVANLNAAAVALSQKDINTALKYMEKADHTTAEFLNNTGVYNFLNGDIQRATAAFEQAAKLGNEAAQANLKQLQQIMNMKMSK”, the protein production was “failed”.
For “MKRKSLKSFIYVSALLVFLSGFVGVSLFVKSEVVEATTIGDDYPVKWKNLPLGGAIDDWRMYTRYCTSFVAYRLSTANNFELPSGFGNADRWGTEAMARGYKVDKNPKVGSVAWWTSTHVAWVAEVSGDNVKVEEYNYGFDGKYNTRWINKNSANGYIHFKDMPQTPVGWYNNGHYDYYYYADGTKAIGLTWVGTKRYNFDKNGAMYKNAWTNSDKYSYYSTSDGSLAVGLTWVGTKRYNFDKNGAMYKNAWTNSDKYSYYSTSDGSLAVGLTWVGTKRYNFDKNGAMYKNAWTNSDKYSYYSTSDGSLAVGHQQIGENKYIFDKNGALYKNMWVDLDGNRYYSKEDGALAIGEQIIDGITYMFDESGKLVNNLEHHHHHH”, the protein production was “not failed”.
With “MKRKTIRILLISSGLILILLVGYRLYLEYQTDIQLFLNPKASKTQLLERIRSHGFSAALLLVFLTAIMCAVPGIPTSVIGVIAGLSFGPFSGTLINVLGNSMGNLVAIFLMHHIKFLDKKTETNHWVQSIRRMKHPKIGIMVGYMIPIIPSSVINFAADTMQLPLKNLIAAIFIGVIPSSILYACGGEALFHGYNKTAVLLIVSVLLFVGLVVIIEKDRKRFQKTVL” the protein production was “failed”.
With “MKRLIGLVIVALVLLAACGSNNDKKVTIGVASNDTKAWEKVKELAKKDDIDVEIKHFSDYNLPNKALNDGDIDMNAFQHFAFLDQYKKAHKGTKISALSTTVLAPLGIYSDKIKDVKKVKDGAKVVIPNDVSNQARALKLLEAAGLIKLKKDFGLAGTVKDITSNPKHLKITAVDAQQTARALSDVDIAVINNGVATKAGKDPKNDPIFLEKSNSDAVKPYINIVAVNDKDLDNKTYAKIVELYHSKEAQKALQEDVKDGEKPVNLSKDEIKAIETSLAK” the protein production was “not failed”.
With “MKRLILPIACGICTVTSDAQTDKQPHPNVIFIYADDLGYKDLSCTGSRFYETPHIDKLAREGVCFTQSYAACPVSSPSRAALLTGKYPARINLTDYIPGDRAYGPHKNQRLASLPFNLHLSKDEITMAEAFRQNGYSTFMAGKWHLAESAEYYPEQNGFDINIGGNNTGHPSKGYFSPYGNPQLKDGPEGEYLTDRLTDEVIRYISEPKEKPFFVYLSYYTVHLPLQAKAEKIAKYRRKLSRAVPADSSFVKKGETYHKLVQDIPAYAAMVESLDENIGRLLDTLHRSGLDERTIVVFTSDNGGMATSNTTRNIPTSNLPLRAGKGYLYEGGIKVPAIIRWSGHLKGRQVSDTPIIGTDYYPTLLDLCGLPLLPGQHVDGVSMKPVLQGGRLSRPSLFWHYPHYSGGLGGRPSAAIREGDYKLIEFFEDHHVELYNVIQDESEEKDLSQIYPEIADGLRKKLYLWYKEVGARMPVDNPHYVSPVKDSDSFENKLEHHHHHH” the protein production was “failed”.
In the case of “MKRLSTLCLLAAGFFIPGQAHQARPTVLDSVYAPLKVATPPSDAYIGLSLLDNGEIRHYNYGEQAVAGTVYLSSTDHGLTWKRVNRPKEMPFADCQSPVSKEYIRLVDMGAMGVYCIRTSGGLTGGRTLTKVADRNSIMIKPPVFIRNGKRIVVAAHGGVTPKGCYTYFSDDDGLTWKCSNTVTSPDHQGGGFHKGIRWNHGAVEPTVVELKDGTLWMLMRTSQDFHYQAFSKDGGQTWGESEPSPFYGTITMPTLGRLADGRLLLFWCNTTPLPEKEGTDGVWDDVFTNRDVTHVAVSDDDGKTWKGFRELYMDPMRNDIDYAVHGGGIDRGVHQAQFVEVAPGKVLASIGQHPLHRAMMMFDVNWLYEKSRFNDFTDSLSQWSTFNYMNGIKGHCAYNRIQGCMLEPHPRKEGRQVLHLTYRPDASLVADTRGAVWNFPAMKKGTFTVSLRIPEGSHSVSLLLNDRWMNPSDTVARYQSMYELPLTRKQLGVKDDRWHEVSLEWDLLQKRPQARVWVDGRLRPLRLPLKNKSQNGISYVHFIAPPAEANPGVYLEWVRAEADGAI”, the protein production was “failed”.
In the case of “MKRSIEDTPIVLIGAGNLATNLAKALYRKGFRIVQVYSRTEESARELAQKVEAEYTTDLAEVNPYAKLYIVSLKDSAFAELLQGIVEGKREEALMVHTAGSIPMNVWEGHVPHYGVFYPMQTFSKQREVDFKEIPFFIEASSTEDAAFLKAIASTLSNRVYDADSEQRKSLHLAAVFTCNFTNHMYALAAELLKKYNLPFDVMLPLIDETARKVHELEPKTAQTGPAIRYDENVIGNHLRMLADDPAMQRLYELLSRSIHERQ”, the protein production was “not failed”.
In the case of “MKRTIFLLMSILLLLTACGDGHKQTSSDKEQSEHKDNHNKNQVKQIATDKKVQGDNYRTILPFKESQARGLLQDNMANGYNGEDFESGLLELSKEIFPTNKYLYQDGQYLDKKTINAYLDPKYTKKEIDKMSEKEKKSKNANENLGLNPSHNGETDEEKIAKNSPAYLSNILEQDFYGNSDSKGKNIKGMTIGLAMNSVYYYKKEKDGETFSKDLSDKEIEKQGKQMASEMLSRLRENSDLKDIPIHFAIYKQSSQDSITPGEFIVGTTVEEGKTKINSWDNINEKAALIPSSTAADYDETLNNNFKQFNDNLQSYFSNFTQAVGKVKFVNKKAKQLTVDLPIDYYGQAETIGITQYVTEQAEKYFDKLDEYEIRIKDGNTPRALISKTKDDKEPQVHIYHN”, the protein production was “failed”.
In the case of “MKRTLLAISIFAITCNASASSSPDAVSSMSDRYSTLANLEMNGGFPTETSQKILQNESYFQRASMLYQWALPIVNMKAMQEGHAELMNGTAYNKIAIYQDRLKPNSLITTPNSDVIYAMGWLDMKETGPLIIEHPAGLQSLMDDMYHHPLRGPLDKNQPGGQYLGDIGNAGPDKGKAAKFLILPPNKKREDYAQLADKYFIYESNTSEVFLFLRSFFKDMNNLEPAVNRVKEIKVYPLNGSAESMEFFNVSDVPSKSIWDNDYRFYETLNRAVQNMELATFDPYMNGVMAAIGISKGVEFTPTEKQKEMLTKAAQTGWKISKEIALNFDEKSSKTTGDTWFWKEAPSWVAHALTDKGNQYHALSDPYYHNIKTGYTNVDAITHMYTNHYSMSSGMINAKIGAGAKYAGAYKDKDLNPLIGSCNYSLHIPADVPASLFWSVTAYDAATAAGVNVENHQWPSLGDRDNPIKNSDDSVTLFFGPTAPENAQLAKNNWLQFDNDSWFSLIRFYGPQQSLFDGSWVPGEFEKINCVK”, the protein production was “failed”.
In the case of “MKRTVALAASLSLLWLLLSGYWHDPLLLGFGLLSVGAVVALSLRMGIVDAEGVPLRQIPGLITYLPWLAWQVVLSAITVARIVLSPKLSISPTLAAIPAAPKTAIGQVILANSITLTPGTLSLDLDDGAVLVHGLCAAGIDDLMTGEMGRRVAALDGRGAP”, the protein production was “failed”.
In the case of “MKRVAIFASGSGTNAEAIIQSQKAGQLPCEVALLITDKPGAKVVERVKVHEIPVCALDPKTYPSKEAYEIEVVQQLKEKQIDFVVLAGYMRLVGPTLLGAYEGRIVNIHPSLLPAFPGLHAIEQAIRANVKVTGVTIHYVDEGMDTGPIIAQEAVSIEEEDTLETLTTKIQAVEHRLYPATLHKLLSK”, the protein production was “not failed”.
For “MKRWGLIFPTLYFFFLFIMIFVFNFPREVTRQWMWIQVGGIVFMIALGLYFDGYASLKEVITIGAFTLLWLGLSFTVNIRKEYFTLLGLIIELVLDLALREGG”, the protein production was “failed”.
With “MKSARPRLSDAHGRRNCARRGRRPGHQPFWRLAMNIVRYPQFSTHALQNEIKHVFDRFFEHNSDTDESAVVTAQWVPRVDIKEEPKHFVLYADLPGIDPSQIEVQMDKGILSIKGERKSESSTETERFSRIERRYGSFHRRFALPDSADADGITASGHNGVLEIRIPKRPAATPRRIHVGNGQDTSDSTVQ” the protein production was “failed”.
With “MKSAVEQLSTYKSVHLNPRNIQTHFIGIPLIIWSAFLLFATIRIPLGDADNVNLGMILAIGIMLYYLRLHAKLALGLALFLAPVIYTTELVAHSENAFGLAITVFIVGWIFQLIGHRYEKAKPAFVDDLNQLLIGPFFLMAEVYFMLGLEKQLNAEITPIAIEKRRALEAHLKTK” the protein production was “failed”.
In the case of “MKSAYIFFNPKSGKDEQALAKEVKSYLIEHDFQDDYVRIITPSSVEEAVALAKKASEDHIDLVIPLGGDGTINKICGGVYAGGAYPTIGLVPAGTVNNFSKALNIPQERNLALENLLNGHVKSVDICKVNDDY”, the protein production was “failed”.
For “MKSILDGLADTTFRTITTDLLYVGSNDIQYEDIKGDMASKLGYFPQKFPLTSFRGSPFQEKMTAGDNPQLVPADQVNITEFYNKSLSSFKENEENIQCGENFMDIECFMVLNPSQQLAIAVLSLTLGTFTVLENLLVLCVILHSRSLRCRPSYHFIGSLAVADLLGSVIFVYSFIDFHVFHRKDSRNVFLFKLGGVTASFTASVGSLFLTAIDRYISIHRPLAYKRIVTRPKAVVAFCLMWTIAIVIAVLPLLGWNCEKLQSVCSDIFPHIDETYLMFWIGVTSVLLLFIVYAYMYILWKAHSHAVRMIQRGTQKSIIIHTSEDGKVQVTRPDQARMDIRLAKTLVLILVVLIICWGPLLAIMVYDVFGKMNKLIKTVFAFCSMLCLLNSTVNPIIYALRSKDLRHAFRSMFPSCEGTAQPLDNSMGDSDCLHKHANNAASVHRAAESCIKSTVKIAKVTMSVSTDTSAEAL”, the protein production was “not failed”.
For “MKSILEQLSSITVVVADTGDLDAIKKFQPRDATTNPSLILAAAKNPDYIKLIDQALESSRKSLPAGFSESELIKETIDQVSVFFGKEILNLISGRVSTEVDARLSFDTEATVTKARKLINHYKSFGINKERILIKIASTWEGIKAAEILEKEGIKCNLTLLFNFCQAVACANAKITLISPFVGRILDWHKAKTGKDNFAGCEDPGVISVTKIYNYFKEKGFKTEVMGASFRNIDEIKELAGCDLLTIAPKFLDELNREEGELIKKLDEDTQSQSSIDYKFDEKDFRLSMLEDQMASEKLSEGITGFSKAIEELEELLLKRLSEINNQKLISTT”, the protein production was “failed”.
For “MKSKFLTMKLILGALVLSFSCACSSSNSEEAMPQTAIGRQLVESGMANDVTLDNESVVRDGIKLNELAFKTFGESQHIFVATIDLNELTFTPATKDDKNVPATGPESSAPLPIHAFAAEANGKTVWLGVNGDYYADNPRRVMGLFYKDGVCINSQYFEGHDEVLYQLKNGETYVGQADEALAHEANLLHALGGYGLLVKDGVVQNFYEEMGDLQNTHPRTSVGLSQDRKTMYVFVVDGRRKDSFFALGLTLPHLATMMKAVGCYNAINLDGGGSTTLIIRKVNDGGKPTFPILNTPADDRVPRKVTNSMLIIEKK”, the protein production was “failed”.
In the case of “MKSKNQFFVSLLLKSTLVFSSFLMFADISRGQATVSISQQKILAQALTNQEREELTRLRAEKGERAQIQADFEQAFSRTTVLLNIWLVILSLFPVAIIALFWLLRRVAIREIVNRAMSQFEGIEKLETQLIIVKQDAENLIQDAKSINRLLEREIESLQQKIKIEQENLSVVTSELLQAKTDNLAQITTEIANFQSKLESLVGEFAHRLTQSDSDTKKQRDITLENIIKIESLLEVQLTELQKEAERHQKAVLGNIDTAGVDFNNYLINLQAEAQKNKNSVFEDFSHFQAELQGDLQQQKDIQLGNIQEVANIFNNQVSELQLEAQKQKDSLDNNLNKLHTDAQIRKDKIIHRLEELKDLFQAQVAELQIQTQQELASYLSELKIDTGNSKEKIIEELEKSGSEFVSQFSELQHNAQQQKLLILQKLEKLETDFVNQLSELQLDAQRRKDVILQELAENQPPVVVEAQPIHKDQLEVLVNENEQPQLSFDECIEQGDSLFSQKSYEEAITCYEQAVKIQQDNAVAWFKHGLTLARLKRFKDAIKSYHQAIKIKPDYHQAWCDLGVAFGNIRRHQEAFAAFDKATQVKPDDAVVWLNRGLALIELEEYEEAIASFDQALELQPNSPKIWDKRGYSLVRLGRDDEAITSFNQALEIKPEYASAYYNKAACYAMQGDVNSSLENLQQAIILNPKYKEDAATDIDFDEIAGDEKFKQLIATIGIRFDF”, the protein production was “failed”.
